Data: PMC8138769

How the values were obtained:
[1] = target: Ly49C natural killer domain (NKD), high-affinity mutant (V141K, S171G, E193G, R223K) (murine); test: ITC
[2] = target: Ly49C natural killer domain (NKD), high-affinity mutant (V141K, S171G, E193G, R223K) (murine); test: AUC; sedimentation velocity, 20 °C, absorbance optics, 40,000 rpm; 4.2 μM Ly49C NKD, 3.7 μM peptide/MHC complex, and a mixture of the two; 10 mM HEPES pH 7.4, 150 mM NaCl, 3 mM EDTA, 0.005% surfactant P20
[3] = target: H-2K^b (heavy chain with murine β2-microglobulin) (mouse | murine)

Substance | Kd [1] | dH [1] | stoichiometry N [1] | stoichiometry N [2] | apparent Tm of the peptide/H-2K^b complex by differential scanning fluorimetry [3]
H-2K^b in complex with the ovalbumin peptide (OVA; SIINFEKL) (from UniProt P01887) (peptide-MHC) | 1.9 µM | 2 kcal/mol | 1 | – | –
H-2K^b presenting the MMTV gp70 peptide (MMTV; ANYDFICV) (from UniProt P01887 21-119) (peptide-MHC) | 8 µM | 2.3 kcal/mol | 1 | – | –
Ly49C natural killer domain (NKD), high-affinity mutant (V141K, S171G, E193G, R223K) (domain or fragment) | – | – | – | 2 | –
MMTV gp70 peptide (MMTV; ANYDFICV) | – | – | – | – | 54 °C
ovalbumin peptide (OVA; SIINFEKL) | – | – | – | – | 58 °C
